Measured values from patent publication US20220135687A1 (NANJING LEGEND BIOTECH, published 2022).
Substitutions are numbered along the chain they refer to. One block for each binder: values may come before it.

Legend:
[1] = target: T1, human PD-L1 expressed on CHO-K1 cells (Genscript, Cat #M00543) (human, UniProt Q9NZQ7 19-290); test: FACS, CHO-K1/human PD-L1 cells
T1 construct: also called PD-L1 cell line
Protocol: (§1) PD-L1 stable cell line binding activity assessment of 12 mouse mAbs was carried out using FACS. CHO-K1 cells expressing human PD-L1 (Genscript, Cat #M00543) were dissociated from adherent culture flasks and mixed with varying concentrations of antibodies. The antibody and cells were incubated for 30 minutes at room temperature, washed three times with FACS buffer (PBS containing 1% BSA). PE-labeled goat anti-mouse IgG (minimal x-reactivity) secondary antibody (BioLegend, Cat #405307) was added and incubated at room temperature for 15 minutes. Cells were washed again with FACS buffer and analyzed by FACSCalibur (BD Bioscience, San Jose, Calif.) and Flowjo software. Data were analyzed with Prism 6 (GraphPad Software, San Diego, Calif.) using non-linear regression, and EC₅₀ values were calculated (FIGS. 2A-2L and Table 3).

[2] = target: T1, human PD-L1 expressed on CHO-K1 cells …; test: FACS on CHO-K1 cells expressing human PD-L1, PE-labeled goat anti-mouse IgG secondary antibody
Protocol: as §1

[3] = target: T1, human PD-L1 expressed on CHO-K1 cells …; test: cell-based or functional assay
[4] = target: T1, human PD-L1 expressed on CHO-K1 cells …; test: FACS competition vs biotin-PD-1-Fc on CHO-K1/human PD-L1 cells
Protocol: A series of diluted mouse mAbs (concentration starting from 900 nM, 3 fold dilution, 50 μl per well) were added afterwards. The mixture was incubated at 4° C. for 30 minutes, washed twice with wash buffer, followed by the addition of PEcy5/streptavidin (1 μg/ml, 150 μl/well). The plates were again incubated at 4° C. for 30 minutes before the cells in each well were analyzed by FACSCalibur (BD Bioscience, San Jose, Calif.) and Flowjo software.

[5] = target: T2, His-tagged PD-L1 ECD protein (ACROBiosystems) (human, UniProt Q9NZQ7 19-238); test: SPR, mAb captured via anti-Fc, PD-L1-His analyte
T2 construct: Bought protein; also called PD-L1-His; PD-L1/His; not shown: His tag
Protocol: Briefly, capturing antibody (anti-mouse Fc antibody for the affinity measurement of mouse mAbs, or anti-human Fc antibody for the affinity measurement of chimeric and humanized mAbs, GE healthcare) was immobilized on a Biacore™ CM5 chip to approximately 7,000 RU using EDC-activated amine coupling chemistry. Antibody of interest (5 μg/ml) was captured for 60 seconds onto the sensorchip surface. His-tagged PD-L1 ECD protein (ACROBiosystems) was flowed over the sensorchip surface at a series concentrations. Flow rate was 30 μl/min in all experiments. Association and dissociation phases were 5 and 15 min, respectively. The chip was regenerated using Glycine/HCl pH 1.5. Captured antibody and antigen were removed between each cycle using 50 mM HCl in order to ensure a fresh binding surface for each concentration of antigen. The resulting sensorgrams were fit globally using a 1:1 binding model in order to calculate on- and off-rates (ka and kd, respectively), as well as affinities (KD).

T1 sequence (Q9NZQ7 19-290, one chain of several): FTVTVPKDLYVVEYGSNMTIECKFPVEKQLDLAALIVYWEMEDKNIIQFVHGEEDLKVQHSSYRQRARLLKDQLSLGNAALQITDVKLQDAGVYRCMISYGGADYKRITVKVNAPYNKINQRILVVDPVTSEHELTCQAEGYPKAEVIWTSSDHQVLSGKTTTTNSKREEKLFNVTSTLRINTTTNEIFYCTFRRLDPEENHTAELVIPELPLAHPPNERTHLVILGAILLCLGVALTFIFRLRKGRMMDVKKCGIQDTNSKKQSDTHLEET
T2 sequence (Q9NZQ7 19-238): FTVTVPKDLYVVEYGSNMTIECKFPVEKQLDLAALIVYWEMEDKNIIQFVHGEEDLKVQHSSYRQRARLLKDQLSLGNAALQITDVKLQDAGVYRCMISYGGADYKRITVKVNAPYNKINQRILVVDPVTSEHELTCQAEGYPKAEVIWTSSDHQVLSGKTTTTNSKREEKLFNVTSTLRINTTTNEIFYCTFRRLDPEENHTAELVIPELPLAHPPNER

EC50 [1]: 0.62 nM | Top (best-fit value) [1]: 399 | EC50 (read off the curve) [2]: ~3 nM | EC50, PD-L1 cell-based luciferase reporter assay [3]: 2.27 nM
B1: 18B7F4G8 (antibody, V domains shown)
VH: DVQLQESGPDLVKPSQSLSLTCTVTGYSITSGYTWHWIRQFPGNKLEWMGYIHYSGSTKYNPSLKSRFSITRDTSKNQFFLQLNSMTAEDTATYYCARNSLFASWGHGTLVTVSA
VL: DIVLTQSPASLAVSLGQRATISCRASESVDTYGDSFMHWFQQKPGQPPKLLIYRASNLESGIPARFSGSGSRTDFTLTINPVEADDVATYYCQQSNEAPYTFGGGTKLEIK
notes: Mouse mAb from hybridoma culture

IC50 [4]: 1.23 nM | EC50 [1]: 2.13 nM | Top (best-fit value) [1]: 1720 | EC50, PD-L1 cell-based luciferase reporter assay [3]: 8.69 nM
B2: 51F3D2G4 (antibody, V domains shown)
VH: QVQLQQSGAELARPGASVRLSCKASGYIFTGYGISWVKQRTGQGLEWIGEIFPRTANTYFNEKFKGKATLTADKSSSTAYMELRSLTSEDSAVYFCARDYDPYYALDYWGQGTSVTVSS
VL: DIVMTQSHKFMSTSVGDRVTITCKASQDVSTAVDWYQQKPGQSPKLLIYSASYRYTGVPDRFTGSGSGTAFTFTISSEQAEDLAVYYCQQHYSVPFTFGGGTKLEIK
notes: as for B1

IC50 [4]: 1.27 nM | EC50 [1]: 3.73 nM | Top (best-fit value) [1]: 2020 | Kd [5]: 0.61 nM | koff [5]: 0.00019 s⁻¹ | kon [5]: 320000 M⁻¹ s⁻¹ | EC50, PD-L1 cell-based luciferase reporter assay [3]: 4.45 nM
B3: 53C1F3D4 (antibody, V domains shown)
VH: QVQLQQSGNELARPGASVRLSCKASGYIFTGYGITWVRQRPGQGLEWIGEIFPRRVNTYYSEKFKGRATLTADISSSTAYMELRSLTSEDSAVYFCARDYDPYFALDYWGQGTSVTVSS
VL: B2 VL with T20S, S77G, V94I
notes: Mouse mAb from hybridoma culture; also called mouse 53C1F3D4

IC50 [4]: 1.41 nM | EC50 [1]: 3.06 nM | Top (best-fit value) [1]: 2440 | Kd [5]: 0.28 nM | koff [5]: 0.00017 s⁻¹ | kon [5]: 620000 M⁻¹ s⁻¹ | EC50, PD-L1 cell-based luciferase reporter assay [3]: 3.61 nM
B4: 29A8H8C7 (antibody, V domains shown)
VH: DVQLQGSGPGLVKPSQSLSLTCTVTGYSITSDFAWDWIRQFPGNKLEWMGHIRFSGTTSYNPSLKSRISITRDTSKNQFFLQLNSVTSEDTATYYCARSTLITKGFFDYWGQGTTLTVSS
VL: DIVMTQSHKFMSTSVGGRVSITCKASQDVSPAVAWYQQKPGQSPKLLIYWASTRHTGVPDRFTGSGSGTDFTLTISSVQTEDLALYYCQQHYSTPWTFGGGTKLEIK
notes: Mouse mAb from hybridoma culture; also called mouse 29A8H8C7
